This passage reports Kd and fold less binding than other variants results from PMC6936867.

One assay has as its target FcγRIIa H131 (UniProt P12318). The experiment in a line: SPR. (In SPR one partner is held on a chip, and binding of the other changes the refractive index at the surface.)
A further assay deals with FcγRIIa R131 (UniProt P12318). The experiment in a line: SPR.
A further assay concerns the target FcγRIIIa V158. The experiment in a line: SPR.
The next assay deals with FcγRIIb (UniProt P31994). The experiment in a line: SPR.
The target in the next assay is FcγRIIIa F158 (UniProt P08637). The experiment in a line: SPR.
For assay [1], the target named is CAP256-VRC26.25 IgG3*17 (human). The experiment in a line: SPR; antibodies printed at 200 nM in 25 mM sodium acetate pH 5.0 on an NHS/EDC-activated carboxymethyldextran gold prism (CFM, MX96 array reader); FcγRs injected in PBS + 0.05% Tween 20, 8-part 3-fold dilution series generally starting between 10 and 50 μM, 5 min association, 5 min dissociation; kinetic global analysis for KD.

Chain of FcγRIIa H131 (P12318 34-317): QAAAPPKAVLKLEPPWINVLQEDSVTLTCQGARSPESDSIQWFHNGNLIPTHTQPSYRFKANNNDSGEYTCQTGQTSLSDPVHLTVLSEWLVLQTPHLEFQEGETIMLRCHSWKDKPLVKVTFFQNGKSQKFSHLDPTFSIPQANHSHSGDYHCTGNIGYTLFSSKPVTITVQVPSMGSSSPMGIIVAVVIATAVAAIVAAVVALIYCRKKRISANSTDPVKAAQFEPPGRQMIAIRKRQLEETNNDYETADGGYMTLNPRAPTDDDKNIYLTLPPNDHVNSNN
Chain of FcγRIIIa F158 (P08637 17-254): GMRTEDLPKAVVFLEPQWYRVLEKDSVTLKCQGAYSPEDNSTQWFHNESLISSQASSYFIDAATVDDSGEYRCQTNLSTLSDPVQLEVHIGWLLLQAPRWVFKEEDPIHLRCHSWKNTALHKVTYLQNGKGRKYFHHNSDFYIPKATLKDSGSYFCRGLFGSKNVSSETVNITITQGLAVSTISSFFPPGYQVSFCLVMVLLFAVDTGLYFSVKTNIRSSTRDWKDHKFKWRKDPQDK
Chain of FcγRIIa R131 (P12318 34-217 H167R): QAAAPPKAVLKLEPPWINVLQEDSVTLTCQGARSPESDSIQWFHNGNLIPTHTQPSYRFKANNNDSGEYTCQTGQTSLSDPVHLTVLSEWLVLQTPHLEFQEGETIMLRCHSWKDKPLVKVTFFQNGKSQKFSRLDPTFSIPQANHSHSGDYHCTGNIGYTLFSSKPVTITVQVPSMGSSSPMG
Chain of FcγRIIb (P31994 43-310): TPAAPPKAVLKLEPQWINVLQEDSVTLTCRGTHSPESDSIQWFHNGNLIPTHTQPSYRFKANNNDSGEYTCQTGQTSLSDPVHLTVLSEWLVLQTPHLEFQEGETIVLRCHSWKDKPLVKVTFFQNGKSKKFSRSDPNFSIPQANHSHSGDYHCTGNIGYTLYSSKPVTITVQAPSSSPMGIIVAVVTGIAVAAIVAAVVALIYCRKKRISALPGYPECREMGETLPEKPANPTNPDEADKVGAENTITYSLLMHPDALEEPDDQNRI
Chain of FcγRIIIa V158 (P08637 17-208 F176V): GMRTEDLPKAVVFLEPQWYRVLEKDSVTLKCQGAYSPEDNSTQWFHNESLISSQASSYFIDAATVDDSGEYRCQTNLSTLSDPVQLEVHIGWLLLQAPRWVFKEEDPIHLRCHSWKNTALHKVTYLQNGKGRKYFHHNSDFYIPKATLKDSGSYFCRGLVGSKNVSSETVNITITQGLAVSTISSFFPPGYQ

In the case of CAP256-VRC26.25 IgG1, the dissociation constant (Kd) – broadly, the free concentration of one partner at which half of the binding sites on the other are occupied at equilibrium, for simple one-to-one binding – amounted to 5600 nM in the assay with FcγRIIa H131; 5.7 µM with FcγRIIa R131; 2400 nM with FcγRIIIa V158; 6.6 µM in the assay with FcγRIIb; 3.9 µM with FcγRIIIa F158.

With CAP256-VRC26.25 IgG3*01, the Kd with FcγRIIa H131 came out at 1000 nM; with FcγRIIa R131 it was 3.9 µM; in the assay with FcγRIIIa V158, 2200 nM; with FcγRIIb, 4.6 µM; with FcγRIIIa F158, 3.1 µM.

Regarding CAP256-VRC26.25 IgG3*17, the dissociation constant (Kd) in the assay with FcγRIIa H131 is 1000 nM; in the assay with FcγRIIa R131, 2 µM; in the assay with FcγRIIIa V158, 4100 nM; with FcγRIIb it was 4.5 µM; with FcγRIIIa F158, 4.9 µM.

On to “CAP256-VRC26.29 IgG1 (from UniProt P01857)”, for which the Kd was found to be 5500 nM with FcγRIIa H131; 5.2 µM with FcγRIIa R131; 3600 nM with FcγRIIIa V158; 5.4 µM with FcγRIIb; 4.5 µM in the assay with FcγRIIIa F158.

Regarding “CAP256-VRC26.29 IgG3*01 (from UniProt P01860)”, the Kd in the assay with FcγRIIa H131 was 1300 nM; with FcγRIIIa V158, 2600 nM; in the assay with FcγRIIIa F158, 4.4 µM.

Take “CAP256-VRC26.29 IgG3*01m (from UniProt P01860)”: the results for the Kd with FcγRIIa H131, with FcγRIIIa V158 and with FcγRIIIa F158 were 1400 nM, 2700 nM and 3.9 µM, respectively.

Regarding “CAP256-VRC26.29 IgG3*17 (from UniProt P01860)”, the equilibrium dissociation constant (Kd) in the assay with FcγRIIa H131 amounted to 1300 nM; with FcγRIIa R131, 2.9 µM; in the assay with FcγRIIIa V158, 2400 nM; in the assay with FcγRIIb it was 4.1 µM; with FcγRIIIa F158 it was 4.5 µM.

As for FcγRIIIa, the fold less binding than other variants in assay [1] is 1.7 to 1.9 fold.
